Tests used:
[1] = target: human recombinant TNFα (human) (UniProt P01375); assay: SPR, Biacore T200, standard kinetics, antigen immobilized on CM5 chip
[2] = target: human recombinant TNFα (human) (UniProt P01375); assay: ELISA on human recombinant TNFα, anti-His tag and HRP anti-mouse IgG

human recombinant TNFα (human), sequence (P01375 77-233 limits assumed): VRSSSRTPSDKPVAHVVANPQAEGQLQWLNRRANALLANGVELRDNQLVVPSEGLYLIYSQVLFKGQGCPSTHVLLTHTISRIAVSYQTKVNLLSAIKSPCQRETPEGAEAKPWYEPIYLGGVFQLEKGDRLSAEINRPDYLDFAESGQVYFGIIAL

| Kd [1] | RUmax [1] | EC50 (read off the curve) [2] | Substance |
| --- | --- | --- | --- |
| 9.3 nM | – | – | scFv Ab3 RREF |
| 4.3 nM | 12 RU | 0.09 µg/mL | scFv Ab3 (Adalimumab) of synthesis |
